Assays:
[1] = target: T1, AXL (human, UniProt P30530 26-447, limits assumed); assay: not described
T1 construct: neither the species nor the construct used is stated there; also called human AXL protein; UFO

[2] = target: T1, AXL; assay: competition with Gas6; assay not described

T1 sequence (P30530 26-447 limits assumed): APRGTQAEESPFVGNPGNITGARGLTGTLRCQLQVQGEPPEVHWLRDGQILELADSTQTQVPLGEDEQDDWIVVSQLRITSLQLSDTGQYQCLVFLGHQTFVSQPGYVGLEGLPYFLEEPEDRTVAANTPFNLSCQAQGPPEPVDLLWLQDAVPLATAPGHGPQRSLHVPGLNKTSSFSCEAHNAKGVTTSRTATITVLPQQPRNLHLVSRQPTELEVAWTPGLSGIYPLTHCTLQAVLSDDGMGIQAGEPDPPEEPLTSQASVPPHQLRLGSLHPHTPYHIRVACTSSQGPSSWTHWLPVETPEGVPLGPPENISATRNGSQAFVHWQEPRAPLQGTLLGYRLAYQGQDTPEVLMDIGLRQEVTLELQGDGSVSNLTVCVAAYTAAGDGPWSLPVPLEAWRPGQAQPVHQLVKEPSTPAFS

Binder | binding result [1] | binding result [2]
IgG1-AXL-107-vcMMAE (antibody, V domains shown, also called HuMax-AXL-ADC; IgG1-1021-107-MMAE) VH: EVQLLESGGGLVQPGGSLRLSCAASGFTFSSYAMNWVRQAPGKGLEWVSTTSGSGASTYYADSVKGRFTISRDNSKNTLYLQMNSLRAEDTAVYYCAKIWIAFDIWGQGTMVTVSS VL: not shown | binds | –
IgG1-AXL-148-vcMMAE (antibody, V domains shown, vcMMAE alkylated to cysteines of the reduced antibody (positions not given), Antibody-drug conjugate of antibody 148 with vcMMAE; IgG1 by name; also called IgG1-1021-148-MMAE; IgG1-AXL-148-MMAE) VH: EVQLLESGGGLVQPGGSLRLSCAASGFTFSSYAMTWVRQAPGKGLEWVSAISISGGSTFYADSVKGRFTISRDNSKNTLYLQMNSLRAEDTAVYYCRGYSGYVYDAFDFWGQGTMVTVSS VL: DIQMTQSPSSLSASVGDRVTITCRASQGISNWLAWYQQKPEKAPKSLIYAASSLQSGVPSRFSGSGSGTDFTLTISSLQPEDFATYYCQQYNSYPLTFGGGTKVEIK | binds | –
IgG1-AXL-061-vcMMAE (antibody, V domains shown, vcMMAE alkylated to cysteines of the reduced antibody (positions not given), Antibody-drug conjugate of antibody 061 with vcMMAE; IgG1 by name) VH: QVQLVQSGAEVKKPGASVKVSCKASGYAFTGYGISWVRQAPGQGLEWIGWISAYNGNTNYVQNLQDRVTMTTDTSTSTAYMELRSLRSDDTAVYYCARDHISMLRGIIIRNYWGQGTLVTVSS VL: not shown | binds | –
IgG1-AXL-061 (antibody, V domains shown, IgG1 by name; Unconjugated antibody) VH: QVQLVQSGAEVKKPGASVKVSCKASGYAFTGYGISWVRQAPGQGLEWIGWISAYNGNTNYVQNLQDRVTMTTDTSTSTAYMELRSLRSDDTAVYYCARDHISMLRGIIIRNYWGQGTLVTVSS VL: not shown | – | binds
